The source of these data is patent EP3344659B1 (Immunwork Inc., dated 2025).

This assay deals with T1, human fibrinogen (human, UniProt P02671 20-629; P02675 31-491; P02679 27-437, limits assumed).
T1 construct: Bought from Sigma and coated on 96-well plates; also called fibrinogen plate
T1 sequence (looked up) 1: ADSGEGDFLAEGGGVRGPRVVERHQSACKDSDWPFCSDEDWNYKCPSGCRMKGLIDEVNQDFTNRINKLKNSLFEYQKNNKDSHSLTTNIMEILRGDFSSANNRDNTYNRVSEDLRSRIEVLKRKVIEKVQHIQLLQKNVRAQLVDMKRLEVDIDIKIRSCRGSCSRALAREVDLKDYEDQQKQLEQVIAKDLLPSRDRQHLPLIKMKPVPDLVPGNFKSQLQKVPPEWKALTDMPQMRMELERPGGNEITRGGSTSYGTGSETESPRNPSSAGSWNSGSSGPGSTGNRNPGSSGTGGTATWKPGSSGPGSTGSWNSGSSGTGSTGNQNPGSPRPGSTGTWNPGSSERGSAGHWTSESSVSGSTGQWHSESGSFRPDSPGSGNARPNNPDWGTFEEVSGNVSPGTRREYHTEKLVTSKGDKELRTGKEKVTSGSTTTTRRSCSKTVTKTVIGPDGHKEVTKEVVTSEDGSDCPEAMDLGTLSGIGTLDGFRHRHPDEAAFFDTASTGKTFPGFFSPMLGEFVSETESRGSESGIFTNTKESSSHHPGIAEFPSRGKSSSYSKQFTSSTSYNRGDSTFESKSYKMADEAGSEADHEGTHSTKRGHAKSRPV
T1 sequence (looked up) 2: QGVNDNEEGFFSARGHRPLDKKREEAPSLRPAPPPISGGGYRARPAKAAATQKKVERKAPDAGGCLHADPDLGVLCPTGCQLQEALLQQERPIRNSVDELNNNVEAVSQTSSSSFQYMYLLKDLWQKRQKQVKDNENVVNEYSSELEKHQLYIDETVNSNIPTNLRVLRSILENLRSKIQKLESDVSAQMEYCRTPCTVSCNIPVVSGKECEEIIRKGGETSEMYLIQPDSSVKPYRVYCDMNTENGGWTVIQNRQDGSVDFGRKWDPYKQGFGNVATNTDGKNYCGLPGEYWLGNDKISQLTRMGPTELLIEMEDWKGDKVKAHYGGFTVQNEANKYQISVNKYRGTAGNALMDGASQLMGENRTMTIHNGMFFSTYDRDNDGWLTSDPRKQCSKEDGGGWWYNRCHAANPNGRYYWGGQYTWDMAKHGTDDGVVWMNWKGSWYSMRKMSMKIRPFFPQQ
T1 sequence (looked up) 3: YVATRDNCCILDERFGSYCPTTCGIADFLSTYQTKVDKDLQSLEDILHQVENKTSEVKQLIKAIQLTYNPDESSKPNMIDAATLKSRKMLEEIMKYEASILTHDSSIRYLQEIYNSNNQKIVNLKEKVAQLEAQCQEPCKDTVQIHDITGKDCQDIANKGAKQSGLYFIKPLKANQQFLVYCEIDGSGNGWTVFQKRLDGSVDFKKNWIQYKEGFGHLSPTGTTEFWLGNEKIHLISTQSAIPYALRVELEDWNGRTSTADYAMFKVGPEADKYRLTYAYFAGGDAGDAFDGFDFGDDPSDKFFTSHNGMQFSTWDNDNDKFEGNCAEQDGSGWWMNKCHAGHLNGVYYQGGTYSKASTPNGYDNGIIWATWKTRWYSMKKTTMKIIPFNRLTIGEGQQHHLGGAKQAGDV
The assay is described as follows: ELISA on fibrinogen-coated plate (1 µg/well).

B1: 102-10 scFv specific for human fibrin (scFv)
scFv: DIQMTQSPSSLSASLGGKVTITCKASQDINKYIAWFQHKPGKGPRLLIHYTSTLQPGIPSRFSGSGSGRDYSFSISNLEPEDLATYYCLQYDNLTWTFGGGTKLEIKRGSTSGSGKPGSGEGSTKGQIQLVQSGPELKKPGETVKISCKASGYTFTNYGMNWVKQAPGKGLKWMGWINTYTGEATYADDFKGRFAFSLETSANTAYVQINNLKNEDTATYFCARLMDYWGQGTSVTVSSGGGGSGGGGSC
On to B1, for which the binding result is recorded as “no binding”.
